According to IntAct's records for PubMed 25465129:

Target: ab1ip_mouse Apbb1ip (UniProt Q8R5A3)
Sequence of UniProt Q8R5A3 (Q8R5A3 whole entry): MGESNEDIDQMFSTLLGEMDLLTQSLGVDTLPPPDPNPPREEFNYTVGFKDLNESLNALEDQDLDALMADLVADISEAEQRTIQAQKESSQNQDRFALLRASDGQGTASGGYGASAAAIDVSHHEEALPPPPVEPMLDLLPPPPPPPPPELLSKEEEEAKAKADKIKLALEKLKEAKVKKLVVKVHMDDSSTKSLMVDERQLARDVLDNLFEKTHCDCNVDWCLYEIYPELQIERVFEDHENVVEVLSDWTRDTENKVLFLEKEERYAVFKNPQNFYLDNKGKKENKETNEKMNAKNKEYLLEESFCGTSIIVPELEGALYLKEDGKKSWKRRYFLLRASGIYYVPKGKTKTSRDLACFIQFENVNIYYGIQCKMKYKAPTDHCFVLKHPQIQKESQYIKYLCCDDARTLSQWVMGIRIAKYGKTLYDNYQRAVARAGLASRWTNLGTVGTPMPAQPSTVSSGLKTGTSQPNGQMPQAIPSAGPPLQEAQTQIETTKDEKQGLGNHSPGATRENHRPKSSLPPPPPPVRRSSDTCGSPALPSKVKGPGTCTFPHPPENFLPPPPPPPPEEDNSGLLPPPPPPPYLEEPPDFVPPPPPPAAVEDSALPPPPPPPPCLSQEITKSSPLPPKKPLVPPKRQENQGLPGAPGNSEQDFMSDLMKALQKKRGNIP

| effect of a mutation on the interaction | Substance |
| --- | --- |
| decreasing interaction strength | Talin-1 (Mus musculus), P26039 V871Y |
| disrupting interaction strength | Talin-1 (Mus musculus), P26039 V871Y;V1540Y |
| decreasing interaction strength | Talin-1 (Mus musculus), P26039 V1540Y |
